# Experimental data from patent publication US20210292392A1 (TSB THERAPEUTICS BEIJING, published 2021).
# Key:
# [1] = target: spike protein on live SARS-CoV-2 (SARS-CoV-2, UniProt P0DTC2 14-1273); test: cell-based or functional assay
# [2] = target: full length spike (S) protein of SARS-CoV-2 on pseudovirus (SARS-CoV-2, UniProt P0DTC2 14-1273); test: cell-based or functional assay
# [3] = target: spike (S) protein of live SARS-CoV-2 (SARS-CoV-2, UniProt P0DTC2 14-1273); test: cell-based or functional assay
# [4] = target: spike protein of live SARS-CoV-2 (SARS-CoV-2, UniProt P0DTC2 14-1273); test: cell-based or functional assay
# [5] = target: T1, full length spike (S) protein of SARS-CoV-2 (SARS-CoV-2, UniProt P0DTC2 14-1273); test: cell-based or functional assay
# [6] = target: T1, full length spike (S) protein of …; test: cell-based or functional assay; remark: listed apart in the source
# [7] = target: recombinant RBD of the spike protein of SARS-CoV-2 (residues Arg319-Phe541) (SARS-CoV-2, UniProt P0DTC2 319-541); test: SPR, RBD on CM5 chip
binder,measurement,setting,value
"P2C-1A3 (antibody, V domains shown) VH: QVQLVESGGGLVKPGGSLRLSCAASGFTFSDYYMSWIRQAPGKGLEWVSYISSSGSTIYYADSVKGRFTISRDNAKNSLYLQMNSLRAEDTAVYYCARDFSHQQLVPSWGQGTLVTVSS VL: not shown [P2C-1A3, listing 1 of 2 here]","IC50, live SARS-CoV-2 focus reduction neutralization test (FRNT)",[1],0.28 µg/mL
"P2C-1A3 (antibody, V domains shown) VH: QVQLVESGGGLVKPGGSLRLSCAASGFTFSDYYMSWIRQAPGKGLEWVSYISSSGSTIYYADSVKGRFTISRDNAKNSLYLQMNSLRAEDTAVYYCARDFSHQQLVPSWGQGTLVTVSS VL: not shown [P2C-1A3, listing 2 of 2 here]",Pseudovirus IC50,[2],0.62 µg/mL
same,Pseudovirus IC80,[2],5.94 µg/mL
same,Live virus IC50,[3],0.283 µg/mL
same,Live virus IC80,[3],1.46 µg/mL
"P2C-1C10 (antibody, V domains shown) VH: QVQLVQSGAEVKKPGSSVKVSCKASGGTFSSYAIIWVRQAPGQGLEWMGGIIPIFGTANYAQKFQGRVTITADESTSTAYMELSSLRSEDTAVYYCARVVTGYYFDYWGQGTLVTVSS VL: EIVLTQSPATLSLSPGERATLSCRASQSVSSYLAWYQQKPGQAPRLLIYDASNRATGIPARFSGSGSGTDFTLTISSLEPEDFAVYYCQQRSNWPSFGQGTKLEIKR",Pseudovirus IC50,[2],2.62 µg/mL
same,Pseudovirus IC80,[2],4.64 µg/mL
same,Live virus IC50,[3],11.1 µg/mL
same,Live virus IC80,[3],> 50 µg/mL
"P5A-1D1 (antibody, V domains shown) VH: EVQLVESGGGLIQPGGSLRLSCAASGLTVSSNYMSWVRQAPGKGLEWVSVIYSGGSTYYADSVKGRFTISRDNSKNTLYLQMNSLRAEDTAVYYCARDLYYYGMDVWGQGTTVTVST VL: DIQLTQSPSFLSASVGDRVTITCRASQGISSYLAWYQQKPGKAPKLLIYAASTLQSGVPSRFSGSGSGTDFTLTISSLQPEDFATYYCQQLNSYPTFGQGTRLEIKR",Live virus IC50,[4],0.0189 µg/mL
"P5A-2E1 (antibody, human IgG1, lambda, V domains shown) VH: EVQLVQSGAEVKKPGESLKISCKGSGYSFTSYWIGWVRQMPGKGLEWMGIIYPGDSDTRYSPSFQGQVTISADKSISTAYLQWSSLKASDTAMYYCAQTSVTRNWFDPWGQGTLVTVSS VL: SYVLTQPPSVSVAPGKTARITCGGNNIGSKSVHWYQQKPGQAPVLVIYYDSDRPSGIPERFSGSNSGNTATLTISRVEAGDEADYYCQVWDSSSDHVVFGGGTKLTVLG","IC50, pseudovirus neutralization",[5],6.97 µg/mL
"P1A-1C10 (antibody, V domains shown, human IgG1, kappa) VH: QVQLVQSGAEVKNPGSSVKVSCKAGGGTSSFYDINWVRQAPGQGLEWIGKIIPRLDIADYAQKSQGRVTITADKSTSTVYLELSSLKSDDTAVYFCARGRPGSEWAYGPFDLWGQGTLVTVSS VL: DIQMTQSPSTLSASVGDRVTITCRASQSSRAWLAWYQQKPGKAPKLLISKASSLESGVPSRFSGSGYGTEFTLTISSLQPDDSATYYCHQYNSSPFTFGPGTKVQIKR","IC50, Pesudovirus neutralization",[6],21.5 µg/mL
same,Kd,[7],8.48 nM
"P5A-1C8 (antibody, human IgG1, kappa, V domains shown) VH: QVQLVQSGAEVKKPGASVKVSCKASGYTFTSYYMHWVRQAPGQGLEWMGIINPSGGSTSYAQKFQGRVTMTRDTSTSTVYMELSSLRSEDTAVYYCARSARDYYDSSGYYYRAEYFQHWGQGTLVTVSS VL: DIQMTQSPSSLSASVGDRVTITCQASQDISNYLNWYQQKPGKAPKLLIYDASNLETGVPSRFSGSGSGTDFTFTISSLQPEDIATYYCQQYDNLPSITFGQGTRLEIKR","IC50, pseudovirus neutralization",[5],0.434 µg/mL
